Measured values: patent publication US20220356230A1 (published 2022)
Residue numbers refer to the chain shown, from its start.

B1: mAb10989 (antibody, V domains shown)
VH: QVQLVQSGAEVKKPGASVKVSCKASGYIFTGYYMHWVRQAPGQGLEWMGWINPNSGGANYAQKFQGRVTLTRDTSITTVYMELSRLRFDDTAVYYCARGSRYDWNQNNWFDPWGQGTLVTVSS
VL: QSALTQPASVSGSPGQSITISCTGTSSDVGTYNYVSWYQQHPGKAPKLMIFDVSNRPSGVSDRFSGSKSGNTASLTISGLQAEDEADYYCSSFTTSSTVVFGGGTKLTVLG
B2: mAb10967 (antibody, V domains shown)
VH: EVQLVESGGGLVQPGGSLRLSCAASGFTVSSNYMSWVRQAPGKGLEWVSVIYPGGSTFYADSVKGRFTISRDNSKNTLYLQMNSLRAEDTAVYYCARDQRDFAWGQGTLVTVSS
VL: DIQMTQSPSSLSASVGDRVTITCQASQDISNYLNWYQQKPGKAPKLLIYDASNLETGVPSRFSGSGSGTDFTFTISGLQPEDIATYYCQQYDNLPPTFGQGTRLEIKR
B3: mAb10954 (antibody, V domains shown)
VH: EVQLVESGGGLVQPGGSLRLSCAASGITVSSNYMSWVRQAPGKGLEWVSLIYSGGSTYYADSVKGRFTISRDNSKNTLYLQMNSLRVEDTAVYYCARDHGMAAAGYNYWGQGTLVTVSS
VL: B2 VL with S30N, N31K, S76N, G77S, I83F, Y87F, T97A, R103K, L104V
B4: mAb10965 (antibody, V domains shown)
VH: EVQLVESGGGLIQPGGSLRLSCAASVFTVSYNYMSWVRQAPGKGLEWVSVIYSGGSTYYADSVKGRFTISRDNSKNTLYLQMNSLRAEDTAVYYCARALPGWGGSFEYFDYWGQGTLVTVSS
VL: not shown

Each binder was assayed against Human SARS Coronavirus Spike S1 Subunit Protein (His Tag) (Sino 40150-V08B1) (Human SARS Coronavirus, UniProt P59594 14-667) (assay: Luminex bead binding, antigen on microspheres, antibody supernatant).

| Binder | MFI [MFI] |
| --- | --- |
| B1 | 21 |
| B2 | 21 |
| B3 | 15 |
| B4 | 16 |
